Changes are numbered by the printed parent chain. In names and notes the source's numbering stands. Values belong to the binder of their own block, whether it stands above or below them.
What was measured:
human IL-36R [1] = biological target: T1, human IL-36R (human, UniProt Q9HB29 20-575); assay: cell-based or functional assay
T1 sequence (looked up): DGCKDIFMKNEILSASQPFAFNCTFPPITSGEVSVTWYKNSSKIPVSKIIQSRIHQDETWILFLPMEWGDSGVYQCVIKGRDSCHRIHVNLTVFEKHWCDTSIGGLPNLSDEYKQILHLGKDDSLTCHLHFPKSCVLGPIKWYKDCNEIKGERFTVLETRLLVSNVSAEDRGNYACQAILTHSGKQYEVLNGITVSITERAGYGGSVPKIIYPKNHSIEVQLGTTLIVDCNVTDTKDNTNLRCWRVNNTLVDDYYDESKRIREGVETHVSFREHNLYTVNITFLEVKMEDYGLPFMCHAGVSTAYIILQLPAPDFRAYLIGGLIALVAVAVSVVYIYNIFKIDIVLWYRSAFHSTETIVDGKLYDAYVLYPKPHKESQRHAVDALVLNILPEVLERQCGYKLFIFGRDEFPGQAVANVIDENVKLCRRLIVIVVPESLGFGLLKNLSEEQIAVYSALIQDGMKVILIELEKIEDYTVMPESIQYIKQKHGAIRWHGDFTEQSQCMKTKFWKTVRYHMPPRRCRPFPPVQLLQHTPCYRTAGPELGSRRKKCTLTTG

human IL-36R [2] = biological target: T1, human IL-36R; assay: cell-based or functional assay; remark: listed apart in the source
human IL-36R [3] = biological target: T1, human IL-36R; assay: cell-based or functional assay; remark: listed apart in the source
human IL-36R [4] = biological target: T1, human IL-36R; assay: cell-based or functional assay; remark: listed apart in the source
human IL-36R [5] = biological target: T1, human IL-36R; assay: cell-based or functional assay; remark: listed apart in the source
human IL-36R [6] = biological target: T1, human IL-36R; assay: flow cytometry on CHO-K1 cells expressing human IL-36R
monkey IL-36R = biological target: T2, monkey IL-36R (monkey); assay: flow cytometry on CHO-K1 cells expressing monkey IL-36R
T2 construct: whole, on cells

[7] = biological target: T3, His-tagged human IL-1 Rrp2/IL-1 R6 protein (human, UniProt Q9HB29 20-335); assay: SPR (Biacore 8K), His-tagged antigen captured by anti-His on CM5, antibody as analyte, 1:1 model
T3 construct: Bought reagent; also called Human IL-1 Rrp2/IL-1 R6 Protein, His Tag; ACRO Biosystems IL2-H52H6; not shown: His tag
T3 sequence (looked up): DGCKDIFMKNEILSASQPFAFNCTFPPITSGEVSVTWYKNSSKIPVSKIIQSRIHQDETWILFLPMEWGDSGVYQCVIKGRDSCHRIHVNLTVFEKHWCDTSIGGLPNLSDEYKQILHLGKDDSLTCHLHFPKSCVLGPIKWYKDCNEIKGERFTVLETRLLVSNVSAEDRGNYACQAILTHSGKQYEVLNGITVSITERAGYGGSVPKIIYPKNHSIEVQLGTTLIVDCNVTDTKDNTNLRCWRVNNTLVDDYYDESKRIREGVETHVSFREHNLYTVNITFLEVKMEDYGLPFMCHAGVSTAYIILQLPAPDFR
Experimental: Series S Sensor Chip CM5 was equilibrated for 20-30 min at room temperature, and then fitted in the instrument. Following the instruction manual for His Capture Kit, an anti-His antibody was immobilized onto the Series S Sensor Chip CM5. An HBS-EP+(10×) solution was diluted 10-fold in ultrapure water as the running buffer. An antigen (His-tagged human IL-1 Rrp2/IL-1 R6 protein) was diluted to 1 μg/ml and 10 μL/min using the running buffer, and loaded during 15 sec to capture around 50 RU of antigen. An antibody sample were diluted to 30 nM, 15 nM, 7.5 nM, 3.75 nM, 1.875 nM, 0.9375 nM, and 0.46875 nM using an equilibration buffer; the running buffer was taken as zero concentration; at 30 μL/min, binding and dissociation were allowed to occur for 120 s and 900 s, respectively; and the chip was regenerated with the glycine solution at pH 1.5. The sample was analyzed by a capture-based single-cycle kinetics program; the corresponding analysis program was selected to analyze the data, and it was confirmed that there was no obvious reference binding; and the Kinetics 1:1 binding model was selected for fitting analysis to acquire the kinetic parameters of the sample.

- IC50, GM-CSF release under IL-36 α stimulation (NCI/ADR-RES cells) (human IL-36R [1]): 0.022 µg/mL
- IC50, GM-CSF release under IL-36 β stimulation (NCI/ADR-RES cells) (human IL-36R [1]): 0.0174 µg/mL
- IC50, GM-CSF release under IL-36 γ stimulation (NCI/ADR-RES cells) (human IL-36R [1]): 0.0198 µg/mL
- IC50, IL-6 release under IL-36 α stimulation (NCI/ADR-RES cells) (human IL-36R [1]): 0.015 µg/mL
- IC50, IL-6 release under IL-36 β stimulation (NCI/ADR-RES cells) (human IL-36R [1]): 0.0139 µg/mL
- IC50, IL-6 release under IL-36 γ stimulation (NCI/ADR-RES cells) (human IL-36R [1]): 0.0162 µg/mL
- IC50, IL-8 release under IL-36 α stimulation (NCI/ADR-RES cells) (human IL-36R [1]): 0.0315 µg/mL
- IC50, IL-8 release under IL-36 β stimulation (NCI/ADR-RES cells) (human IL-36R [1]): 0.0223 µg/mL
- IC50, IL-8 release under IL-36 γ stimulation (NCI/ADR-RES cells) (human IL-36R [1]): 0.0198 µg/mL
- IC50, pNF-κB under IL-36 β stimulation (NCI/ADR-RES cells) (human IL-36R [1]): 71.4 ng/ml
- HuIL-6 detected in NCI/ADR-RES under IL-36β stimulation IC50 (human IL-36R [2]): 0.00887 µg/mL
- HuIL-6 detected in HIF under IL-36α stimulation IC50 (human IL-36R [3]): 0.0479 µg/mL
- HuIL-6 detected in HIF under IL-36β stimulation IC50 (human IL-36R [4]): 0.0546 µg/mL
- pNFκB detected in HIF under IL-36β stimulation IC50 (human IL-36R [5]): 0.105 µg/mL
- EC50 (human IL-36R [6]): 0.062 µg/mL
- EC50 (monkey IL-36R): 0.0595 µg/mL
- Kd [7]: 0.0452 nM
- koff [7]: 4.37e-05 s⁻¹
- kon [7]: 967000 M⁻¹ s⁻¹
B1: humanized anti-IL-36R antibody 900527 (antibody, V domains shown)
VH: QVQLVQSGAEVKKPGASVKVSCKASGYTFTSSWMHWAKQAPGQGLEWIGEIHPNSAKTNYNQKFQGRVTMTRDTSISTAYMELSRLRSDDTAVYYCARVDYGKPWFAYWGQGTLVTVSS
VL: QIVLTQSPGTLSLSPGERATLSCRASSSVSSSYLHWYQQKPGQAPRLWIYSTSSRATGIPDRFSGSGSGTDFTLTISRLEPEDFATYYCQQFQSSPLTFGQGTKLEIK
notes: IgG1 (human IgG1 L234A/L235A, human kappa); also called HB0034

- IC50, GM-CSF release under IL-36 α stimulation (NCI/ADR-RES cells) (human IL-36R [1]): 0.0202 µg/mL
- IC50, GM-CSF release under IL-36 β stimulation (NCI/ADR-RES cells) (human IL-36R [1]): 0.0186 µg/mL
- IC50, GM-CSF release under IL-36 γ stimulation (NCI/ADR-RES cells) (human IL-36R [1]): 0.021 µg/mL
- IC50, IL-6 release under IL-36 α stimulation (NCI/ADR-RES cells) (human IL-36R [1]): 0.0216 µg/mL
- IC50, IL-6 release under IL-36 β stimulation (NCI/ADR-RES cells) (human IL-36R [1]): 0.0168 µg/mL
- IC50, IL-6 release under IL-36 γ stimulation (NCI/ADR-RES cells) (human IL-36R [1]): 0.0176 µg/mL
- IC50, IL-8 release under IL-36 α stimulation (NCI/ADR-RES cells) (human IL-36R [1]): 0.0304 µg/mL
- IC50, IL-8 release under IL-36 β stimulation (NCI/ADR-RES cells) (human IL-36R [1]): 0.022 µg/mL
- IC50, IL-8 release under IL-36 γ stimulation (NCI/ADR-RES cells) (human IL-36R [1]): 0.018 µg/mL
- IC50, pNF-κB under IL-36 β stimulation (NCI/ADR-RES cells) (human IL-36R [1]): 64.9 ng/ml
- Kd [7]: 0.0579 nM
- koff [7]: 5.1e-05 s⁻¹
- kon [7]: 881000 M⁻¹ s⁻¹
B2: humanized anti-IL-36R antibody 900534 (antibody, V domains shown)
VH: B1 VH
VL: B1 VL with W48L
notes: IgG1 (human IgG1 L234A/L235A, human kappa)

- IC50, GM-CSF release under IL-36 α stimulation (NCI/ADR-RES cells) (human IL-36R [1]): 0.0206 µg/mL
- IC50, GM-CSF release under IL-36 β stimulation (NCI/ADR-RES cells) (human IL-36R [1]): 0.0184 µg/mL
- IC50, GM-CSF release under IL-36 γ stimulation (NCI/ADR-RES cells) (human IL-36R [1]): 0.0179 µg/mL
- IC50, IL-6 release under IL-36 α stimulation (NCI/ADR-RES cells) (human IL-36R [1]): 0.0124 µg/mL
- IC50, IL-6 release under IL-36 β stimulation (NCI/ADR-RES cells) (human IL-36R [1]): 0.0223 µg/mL
- IC50, IL-6 release under IL-36 γ stimulation (NCI/ADR-RES cells) (human IL-36R [1]): 0.0121 µg/mL
- IC50, IL-8 release under IL-36 α stimulation (NCI/ADR-RES cells) (human IL-36R [1]): 0.0398 µg/mL
- IC50, IL-8 release under IL-36 β stimulation (NCI/ADR-RES cells) (human IL-36R [1]): 0.0221 µg/mL
- IC50, IL-8 release under IL-36 γ stimulation (NCI/ADR-RES cells) (human IL-36R [1]): 0.018 µg/mL
- IC50, pNF-κB under IL-36 β stimulation (NCI/ADR-RES cells) (human IL-36R [1]): 105 ng/ml
- Kd [7]: 0.0148 nM
- koff [7]: 1.34e-05 s⁻¹
- kon [7]: 904000 M⁻¹ s⁻¹
B3: humanized anti-IL-36R antibody 900513 (antibody, V domains shown)
VH: B1 VH
VL: B1 VL with Q1E, R24S, S54N
notes: IgG1; built from the chimeric expression plasmids (human IgG1 L234A/L235A, human kappa)

- IC50, GM-CSF release under IL-36 α stimulation (NCI/ADR-RES cells) (human IL-36R [1]): 0.0328 µg/mL
- IC50, GM-CSF release under IL-36 β stimulation (NCI/ADR-RES cells) (human IL-36R [1]): 0.0224 µg/mL
- IC50, GM-CSF release under IL-36 γ stimulation (NCI/ADR-RES cells) (human IL-36R [1]): 0.0288 µg/mL
- IC50, IL-6 release under IL-36 α stimulation (NCI/ADR-RES cells) (human IL-36R [1]): 0.0332 µg/mL
- IC50, IL-6 release under IL-36 β stimulation (NCI/ADR-RES cells) (human IL-36R [1]): 0.0204 µg/mL
- IC50, IL-6 release under IL-36 γ stimulation (NCI/ADR-RES cells) (human IL-36R [1]): 0.0198 µg/mL
- IC50, IL-8 release under IL-36 α stimulation (NCI/ADR-RES cells) (human IL-36R [1]): 0.0439 µg/mL
- IC50, IL-8 release under IL-36 β stimulation (NCI/ADR-RES cells) (human IL-36R [1]): 0.0292 µg/mL
- IC50, IL-8 release under IL-36 γ stimulation (NCI/ADR-RES cells) (human IL-36R [1]): 0.0284 µg/mL
- IC50, pNF-κB under IL-36 β stimulation (NCI/ADR-RES cells) (human IL-36R [1]): 115 ng/ml
- HuIL-6 detected in HIF under IL-36α stimulation IC50 (human IL-36R [3]): 0.146 µg/mL
- HuIL-6 detected in HIF under IL-36β stimulation IC50 (human IL-36R [4]): 0.0837 µg/mL
- pNFκB detected in HIF under IL-36β stimulation IC50 (human IL-36R [5]): 0.1 µg/mL
- Kd [7]: 0.0254 nM
- koff [7]: 1.68e-05 s⁻¹
- kon [7]: 660000 M⁻¹ s⁻¹
B4: anti-IL-36R chimeric antibody 900497 (antibody, V domains shown)
VH: QVQLQQTGSVLVRPGTSVKLSCKASGYTFTSSWMHWAKQRPGQGLEWIGEIHPNSAKTNYNEKFKGKATLTVDTFSSTAYVDLSSLASEDSAVYYCARVDYGKPWFAYWGQGTLVTVSA
VL: QIVLTQSPTIMSASPGERVTMTCSASSSVSSSYLHWYQQKPGSSPKLWIYSTSNLASGVPARFSGSGSGTSYSLTINSMEAEDAATYYCQQFQSSPLTFGAGTKLGLK
notes: Human-mouse chimera: human IgG1 heavy-chain constant region with L234A and L235A (Eu numbering), human kappa constant region

Source: US20230399409A1 (SHANGHAI HUAOTA BIOPHARMACEUTICAL, published 2023)
